Assay results published in patent publication US20060015952A1, “Screening assays and methods of tumor treatment” (GENENTECH, INC., priority 2003, published 2006).

Experiments:
[1] = tested on: TGF-beta extracellular domain (ECD); experiment: Binding ELISA of chimeric and humanized 2G7 versions; settings: for binding to TGF-beta of CDR mutants of hu2G7 Version 5 IgG: germline revertants / CDR H2 mutant
Procedure: DNA sequencing of the chimeric clone allowed identification of the CDR residues (Kabat et al., supra). Using oligonucleotide site-directed mutagenesis, all six of these CDR regions were introduced into a complete human framework (VL kappa subgroup I and VH subgroup III) contained on plasmid VX4 as previously described (Presta et al., Cancer Research, 57: 4593-4599 (1997)). Protein from the resultant “CDR-swap” was expressed and purified as above. Binding studies were performed to compare the two versions. Briefly, a NUNC MAXISORP™ plate was coated with 1 microgram per ml of TGF-beta extracellular domain (ECD; produced as described in WO 90/14357) in 50 mM of carbonate buffer, pH 9.6, overnight at 4° C., and then blocked with ELISA diluent (0.5% BSA, 0.05% POLYSORBATE™ 20, PBS) at room temperature for 1 hour. Serial dilutions of samples in ELISA diluent were incubated on the plates for 2 hours. After washing, bound Fab fragment was detected with biotinylated murine anti-human kappa antibody (ICN 634771) followed by streptavidin-conjugated horseradish peroxidase (Sigma) and using 3,3′,5,5′-tetramethyl benzidine (Kirkegaard & Perry Laboratories, Gaithersburg, Md.) as substrate. Absorbance was read at 450 nm.

[2] = tested on: TGF-beta1 through -beta3; experiment: 3T3 cell proliferation assay, neutralization of TGF-betas; assay type: cell-based, mouse; settings: 3T3 cells stimulated with one of three TGF-betas
Procedure: Various humanized antibodies were tested for their activity in neutralizing various TGF-betas versus 2G7 using the 3T3 cell line from fibroblasts of disaggregated Swiss mouse embryos stimulated with one of three TGF-betas in vitro and then their proliferation was measured as activity.

[3] = tested on: TGF-beta; experiment: Mouse messangial cell proliferation assay; assay type: cell-based; settings: antibody 20 μg/ml; TGF-beta at 1 ng/ml level; 48 hours
Procedure: A mouse messangial cell proliferation assay was used to test a control antibody and several humanized antibodies (V5H.V5L, V5H.gIL2, H2NI.V5L, V5H.gIL1gIL2, and H2N1.gIL gIL2). The protocol is as follows:
On day 1: Mouse messangial cells were plated on a 96-well plate in Media (a 3:1 mixture of Dulbecco's modified Eagle's medium and Ham's F12 medium-95%-fetal bovine serum-5%-supplemented with 14 mM HEPES buffer) and grown overnight.
On day 2: TGF-beta with three different concentrations (100 ng, 10 ng and 1 ng) and five different types of humanized TGF antibody (20 μg/ml) were diluted in serum-free Media and added to the cells. A mouse TGF antibody was used as a control (2G7).
On day 4: After 48 hours incubation, 20 μl of reaction buffer (CELLTITER 96® AQUEOUS ONE SOLUTION REAGENT™ containing a tetrazolium compound 3-(4,5-dimethylthiazol-2-yl)-5-(3-carboxymethoxyphenyl)-2-(4-sulfophenyl)-2H-tetrazolium, inner salt, and an electron coupling reagent (phenazine ethosulfate) (Promega Inc. Cat number G3580)) was added to each well of the plate and allowed to incubate for 2 hours. The absorbance (OD) was measured at 490 nm.

B1: V5H.g1L2: Same as Version 5 except the CDR L2 is reverted to human germline kappa locus sequence YASSLQS (antibody, V domains shown)
VH: EVQLVESGGGLVQPGGSLRLSCAASGYAFTNYLIEWVRQAPGKGLEWVGVNNPGSGGSNYNEKFKGRATISADNSKNTLYLQMNSLRAEDTAVYYCARSGGFYFDYWGQGTLVTVSS
VL: DIQMTQSPSSLSASVGDRVTITCRASQSVLYSSNQKNYLAWYQQKPGKAPKLLIYYASSLQSGVPSRFSGSGSGTDFTLTISSLQPEDFATYYCHQYLSSDTFGQGTKVEIK
binding to TGF-beta of CDR mutants of hu2G7 Version 5 IgG [1]: bound to TGF-beta as well as V5H.V5L
activity in neutralizing TGF-betas versus 2G7 [2]: comparable activity, with V5H.gIL2 being the least effective

B2: V5H.g1L1glL2: Same as Version 5 except CDR L1 and CDR L2 reverted to human germline kappa locus sequences (antibody, V domains shown)
VH: B1 VH
VL: DIQMTQSPSSLSASVGDRVTITCRASQGISSYLAWYQQKPGKAPKLLIYYASSLQSGVPSRFSGSGSGTDFTLTISSLQPEDFATYYCHQYLSSDTFGQGTKVEIK
binding to TGF-beta of CDR mutants of hu2G7 Version 5 IgG [1]: did not bind as well as the chimera

B3: Version 5: humanized 2G7, ArgH71Ala, AlaH49Gly, PheH67Ala; SEQ ID Nos. 3 and 4 (antibody, V domains shown)
VL: DIQMTQSPSSLSASVGDRVTITCRASQSVLYSSNQKNYLAWYQQKPGKAPKLLIYWASTRESGVPSRFSGSGSGTDFTLTISSLQPEDFATYYCHQYLSSDTFGQGTKVEIKRTVA
VH: EVQLVESGGGLVQPGGSLRLSCAASGYAFTNYLIEWVRQAPGKGLEWVGVNNPGSGGSNYNEKFKGRATISADNSKNTLYLQMNSLRAEDTAVYYCARSGGFYFDYWGQGTLVTVSSASTKGPS
modifications: Sequence is synthesized
binding to TGF-beta compared to chimeric 2G7 Fab fragment ([1]; humanized versions (FR mutants)): binding restored to that of the original chimeric 2G7 Fab fragment
blocking of cell inhibition induced by TGF-beta [3]: blocked cell inhibition similarly to the control
